{
  "source": "patent US5985836A",
  "about": "“Alpha-1 proteinase inhibitor binding peptides” (Bayer Corporation, priority 1998, dated 1999)",
  "key": {"A1PI [1]": {"molecular_target": "T1, A1PI (Homo sapiens, UniProt P01009)", "T1 construct": "Human plasma is currently the only approved source of therapeutic AlPI", "T1 sequence (P01009 25-418)": "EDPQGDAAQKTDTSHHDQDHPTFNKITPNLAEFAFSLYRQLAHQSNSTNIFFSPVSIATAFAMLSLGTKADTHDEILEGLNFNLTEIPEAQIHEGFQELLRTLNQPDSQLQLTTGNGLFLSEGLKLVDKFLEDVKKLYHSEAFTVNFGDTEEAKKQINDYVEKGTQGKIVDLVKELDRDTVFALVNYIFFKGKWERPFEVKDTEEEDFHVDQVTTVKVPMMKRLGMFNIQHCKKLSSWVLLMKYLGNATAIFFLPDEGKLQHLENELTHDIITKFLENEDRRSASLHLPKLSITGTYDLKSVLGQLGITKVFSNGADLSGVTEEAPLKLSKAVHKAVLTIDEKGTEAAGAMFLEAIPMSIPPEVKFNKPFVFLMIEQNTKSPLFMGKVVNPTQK", "test": "Capture and elution of active A1PI with 2M urea buffer (elastase inhibition activity assay and immunonephelometry)", "type": "binding", "details": "4° C."}, "Immunoglobulin A (IgA)": {"system": "Immunoglobulin A (IgA)", "test": "Purification from Effluent II+III, IgA mass balance", "type": "binding, human", "details": "1 ml Eff. II+III, 4° C.", "method_in_brief": "(§1)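 Peptide-ligand columns were loaded with 1 ml Cohn Effluent II+III (20% v/v ethanol, 20-25 mg/ml hSA, ~1 mg/ml A1PI, other plasma proteins at 0.1-1 mg/ml) using a 10 min residence time at 4° C. Step elutions at 865 μl/min used 1M NaCl, 3M NaCl, then 2% acetic acid, and protein mass balances were tracked across fractions.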"}, "Immunoglobulin G (IgG)": {"system": "Immunoglobulin G (IgG)", "test": "Purification from Effluent II+III, IgG mass balance", "type": "binding, human", "details": "1 ml Eff. II+III, 4° C.", "method_in_brief": "as §1"}, "A1PI [2]": {"molecular_target": "T1, A1PI", "test": "A1PI binding on peptide-resin column, injection of 1 mg A1PI in equilibration buffer", "details": "1 mg A1PI in equilibration buffer", "method_in_brief": "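Peptides synthesized on A-Totda-Toyopearl chelate resin (0.1 mmole/g) packed in 0.4×5 cm columns; 1 mg A1PI injected in equilibration buffer at 4 °C or 20 °C, 865 or 523 μl/min. Flowthrough, 1M/3M NaCl washes and 2% acetic acid eluate quantified by A280 or immunonephelometry as percent of total eluted.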"}, "A1PI [3]": {"molecular_target": "T1, A1PI", "test": "A1PI purification from 5 mg hSA + 1 mg A1PI on peptide column, A1PI mass balance", "type": "binding", "details": "A1PI, 5 mg hSA + 1 mg A1PI; for Mass Protein per Eluate Fraction, 1M NaCl / Mass Protein per Eluate Fraction, 2% Ac. Acid / Mass Protein per Eluate Fraction, Flow: * Below detection limit; for Percent Eluted by Fraction, 1M NaCl / Percent Eluted by Fraction, 2% Ac. Acid / Percent Eluted by Fraction, 3M NaCl / Percent Eluted by Fraction, Flow: relative to total eluted", "method_in_brief": "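Peptides on A-Totda-Toyopearl resin (0.1 mmole/g) in 0.4×5 cm columns; 5 mg hSA + 1 mg A1PI loaded at 4 °C or 20 °C with 10 min residence (17 μl/min). Steps of 1M and 3M NaCl, then 2% acetic acid; fractions quantified by immunonephelometry for mass balance.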"}, "A1PI [4]": {"molecular_target": "T1, A1PI", "test": "Purification of A1PI from Effluent II+III on peptide column, A1PI mass balance", "type": "binding", "details": "A1PI, 1 ml Eff. II+III, 4° C.", "method_in_brief": "as §1"}, "[5]": {"molecular_target": "T2, apolipoprotein alpha-1 (Apo A-1) (Homo sapiens, UniProt P02647)", "T2 construct": "Eff; II+III is a process intermediate in the Cohn plasma fractionation process; tissue Bayer Corporation (Clayton, N.C.); host or cells: plasma fraction: Cohn Effluent II+III", "T2 sequence (P02647 19-267)": "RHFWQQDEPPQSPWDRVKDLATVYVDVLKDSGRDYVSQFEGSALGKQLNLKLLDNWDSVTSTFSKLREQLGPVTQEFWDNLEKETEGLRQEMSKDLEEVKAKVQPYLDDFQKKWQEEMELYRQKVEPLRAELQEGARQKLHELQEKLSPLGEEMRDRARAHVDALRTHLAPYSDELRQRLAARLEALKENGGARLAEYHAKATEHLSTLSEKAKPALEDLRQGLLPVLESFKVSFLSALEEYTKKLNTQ", "test": "Purification from Effluent II+III, Apo A-1 mass balance", "type": "binding", "details": "1 ml Eff. II+III, 4° C.", "method_in_brief": "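Mass balance per protein was determined over the load and each step eluate (1M NaCl, 3M NaCl, 2% acetic acid) of peptide columns challenged with 1 ml Effluent II+III. The feed contained 20% ethanol and 20-25 mg/ml hSA, the flow was 865 μl/min after a 10 min residence, and the temperature was 4° C.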"}, "[6]": {"details": "* as in Tables 4, 5 (below detection limit)"}},
  "note": "Ends that are not written are not given here.",
  "data": [
    {"substance": "RAFWYI", "values": [
      {"measurement": "Mass A1PI in Urea Eluate (mg), Activity", "setting": "A1PI [1]; 1 mg A1PI, eluted with 2M urea, pH 6, elastase inhibition activity assay", "value": 0.62, "unit": "mg"},
      {"measurement": "Mass A1PI in Urea Eluate (mg), Nephelometry", "setting": "A1PI [1]; 1 mg A1PI, eluted with 2M urea, pH 6, immunonephelometry", "value": 0.71, "unit": "mg"},
      {"measurement": "Specific Activity", "setting": "A1PI [1]; mass of A1PI by activity assay relative to immunonephelometry, urea eluate", "value": 0.87, "unit": "mg/mg"},
      {"measurement": "Percent Eluted by Fraction, 1M NaCl", "setting": "Immunoglobulin A (IgA)", "value": 36, "unit": "%"},
      {"measurement": "Percent Eluted by Fraction, 2% Acetic Acid", "setting": "Immunoglobulin A (IgA)", "value": 29, "unit": "%"},
      {"measurement": "Percent Eluted by Fraction, 3M NaCl", "setting": "Immunoglobulin A (IgA)", "value": 0, "unit": "%"},
      {"measurement": "Percent Eluted by Fraction, Flow", "setting": "Immunoglobulin A (IgA)", "value": 35, "unit": "%"},
      {"measurement": "Mass Protein per Eluate Fraction, 1M NaCl", "setting": "Immunoglobulin A (IgA); [6]", "value": 0.12, "unit": "mg"},
      {"measurement": "Mass Protein per Eluate Fraction, 2% Acetic Acid", "setting": "Immunoglobulin A (IgA); [6]", "value": 0.10, "unit": "mg"},
      {"measurement": "Mass Protein per Eluate Fraction, Flow", "setting": "Immunoglobulin A (IgA); [6]", "value": 0.12, "unit": "mg"},
      {"measurement": "Percent Eluted by Fraction, 1M NaCl", "setting": "Immunoglobulin G (IgG)", "value": 9, "unit": "%"},
      {"measurement": "Percent Eluted by Fraction, 2% Acetic Acid", "setting": "Immunoglobulin G (IgG)", "value": 0, "unit": "%"},
      {"measurement": "Percent Eluted by Fraction, 3M NaCl", "setting": "Immunoglobulin G (IgG)", "value": 0, "unit": "%"},
      {"measurement": "Percent Eluted by Fraction, Flow", "setting": "Immunoglobulin G (IgG)", "value": 91, "unit": "%"},
      {"measurement": "Mass Protein per Eluate Fraction, 1M NaCl", "setting": "Immunoglobulin G (IgG); [6]", "value": 0.02, "unit": "mg"},
      {"measurement": "Mass Protein per Eluate Fraction, Flow", "setting": "Immunoglobulin G (IgG); [6]", "value": 0.24, "unit": "mg"},
      {"measurement": "Percent A1PI Eluted by Fraction Based on Absorbance at 280 nm, 1M NaCl", "setting": "A1PI [2]; 4° C.", "value": 55, "unit": "%"},
      {"measurement": "Percent A1PI Eluted by Fraction Based on Absorbance at 280 nm, 2% Acetic Acid", "setting": "A1PI [2]; 4° C.", "value": 45, "unit": "%"},
      {"measurement": "Percent A1PI Eluted by Fraction Based on Absorbance at 280 nm, Flowthrough", "setting": "A1PI [2]; 4° C.", "value": 0, "unit": "%"},
      {"measurement": "Percent A1PI Eluted by Fraction, 1M NaCl", "setting": "A1PI [2]; 20° C.", "value": 72, "unit": "%"},
      {"measurement": "Percent A1PI Eluted by Fraction, 2% Acetic Acid", "setting": "A1PI [2]; 20° C.", "value": 28, "unit": "%"},
      {"measurement": "Percent A1PI Eluted by Fraction, Flowthrough", "setting": "A1PI [2]; 20° C.", "value": 0, "unit": "%"},
      {"measurement": "Mass Protein per Eluate Fraction, 1M NaCl", "setting": "A1PI [3]; 4° C.", "value": 0.19, "unit": "mg"},
      {"measurement": "Mass Protein per Eluate Fraction, 2% Ac. Acid", "setting": "A1PI [3]; 4° C.", "value": 0.45, "unit": "mg"},
      {"measurement": "Mass Protein per Eluate Fraction, Flow", "setting": "A1PI [3]; 4° C.", "value": 0.26, "unit": "mg"},
      {"measurement": "Percent Eluted by Fraction, 1M NaCl", "setting": "A1PI [3]; 4° C.", "value": 21, "unit": "%"},
      {"measurement": "Percent Eluted by Fraction, 2% Ac. Acid", "setting": "A1PI [3]; 4° C.", "value": 50, "unit": "%"},
      {"measurement": "Percent Eluted by Fraction, 3M NaCl", "setting": "A1PI [3]; 4° C.", "value": 0, "unit": "%"},
      {"measurement": "Percent Eluted by Fraction, Flow", "setting": "A1PI [3]; 4° C.", "value": 29, "unit": "%"},
      {"measurement": "Mass Protein per Eluate Fraction, 1M NaCl", "setting": "A1PI [3]; 20° C.", "value": 0.14, "unit": "mg"},
      {"measurement": "Mass Protein per Eluate Fraction, 2% Ac. Acid", "setting": "A1PI [3]; 20° C.", "value": 0.54, "unit": "mg"},
      {"measurement": "Mass Protein per Eluate Fraction, Flow", "setting": "A1PI [3]; 20° C.", "value": 0.09, "unit": "mg"},
      {"measurement": "Percent Eluted by Fraction, 1M NaCl", "setting": "A1PI [3]; 20° C.", "value": 19, "unit": "%"},
      {"measurement": "Percent Eluted by Fraction, 2% Ac. Acid", "setting": "A1PI [3]; 20° C.", "value": 70, "unit": "%"},
      {"measurement": "Percent Eluted by Fraction, 3M NaCl", "setting": "A1PI [3]; 20° C.", "value": 0, "unit": "%"},
      {"measurement": "Percent Eluted by Fraction, Flow", "setting": "A1PI [3]; 20° C.", "value": 11, "unit": "%"},
      {"measurement": "Percent Eluted by Fraction, 1M NaCl", "setting": "A1PI [4]", "value": 4, "unit": "%"},
      {"measurement": "Percent Eluted by Fraction, 2% Acetic Acid", "setting": "A1PI [4]", "value": 80, "unit": "%"},
      {"measurement": "Percent Eluted by Fraction, 3M NaCl", "setting": "A1PI [4]", "value": 0, "unit": "%"},
      {"measurement": "Percent Eluted by Fraction, Flow", "setting": "A1PI [4]", "value": 17, "unit": "%"},
      {"measurement": "Mass Protein per Eluate Fraction, 1M NaCl", "setting": "A1PI [4]; [6]", "value": 0.04, "unit": "mg"},
      {"measurement": "Mass Protein per Eluate Fraction, 2% Acetic Acid", "setting": "A1PI [4]; [6]", "value": 0.87, "unit": "mg"},
      {"measurement": "Mass Protein per Eluate Fraction, Flow", "setting": "A1PI [4]; [6]", "value": 0.18, "unit": "mg"},
      {"measurement": "Percent Eluted by Fraction, 1M NaCl", "setting": "[5]", "value": 0, "unit": "%"},
      {"measurement": "Percent Eluted by Fraction, 2% Acetic Acid", "setting": "[5]", "value": 100, "unit": "%"},
      {"measurement": "Percent Eluted by Fraction, 3M NaCl", "setting": "[5]", "value": 0, "unit": "%"},
      {"measurement": "Percent Eluted by Fraction, Flow", "setting": "[5]", "value": 0, "unit": "%"},
      {"measurement": "Mass Protein per Eluate Fraction, 2% Acetic Acid", "setting": "[5]; [6]", "value": 0.29, "unit": "mg"}
    ]}
  ]
}
